Here are results for six molecules from patent US7504234B2, “Assays for S-adenosylmethionine (AdoMet)-dependent methyltransferase activity” (The Regents of the University of Michigan, priority 2006, dated 2009).

One series addresses T1, hSET8 (Homo sapiens, UniProt Q9NQR1).
T1 construct: A construct of hSET8 encoding residues 191-352 was cloned into the parallel expression vector pHIS2; hexahistidine tag with TEV cleavage site (pHIS2 vector) (N); made in house; host or cells: Escherichia coli BL21 (DE3) Codon Plus RIL
T1 sequence (Q9NQR1 191-352 isoform Q9NQR1-2): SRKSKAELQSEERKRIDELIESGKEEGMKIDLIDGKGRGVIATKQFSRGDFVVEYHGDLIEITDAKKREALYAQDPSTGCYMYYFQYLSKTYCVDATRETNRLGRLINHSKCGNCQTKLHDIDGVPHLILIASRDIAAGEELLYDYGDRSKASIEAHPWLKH
Briefly: isothermal titration calorimetry, wild-type and mutant histone H4 peptides with hSET8. As to conditions: ITC; for histone H4 binding / affinity of hSET8 for mutant histone H4 peptide: 20° C., pH 7.0, saturating AdoHcy; for AdoHcy binding: hSET8 with His-18 mutant H4 peptide. Format: binding. As to the method:
The equilibrium dissociation constants of wild type and mutants of hSET8 and histone H4 were determined using a VP-ITC calorimeter (MicroCal, LLC). […] A saturating concentration of AdoHcy (1.0-2.0 mM) was used in all titrations. ITC data were subsequently analyzed using Origin 7.0 (OriginLab Corp.) with blank injections of ligand into buffer subtracted from the experimental titrations prior to data analysis.

The test system of a further series is their cognate substrates. As to conditions: radiometric assay, literature values; cited from earlier work.
Another series concerns Lys-20 in histone H4. Briefly: MALDI mass spectrometry of methyltransferase reactions (product specificity). Format: biochemical. The protocol:
Histone methyltransferase assays were performed with wildtype hSET8 and the Tyr-245 and Tyr-334 mutants (5 μM) as described above and were quenched after 15 min or 24 h by the addition of 0.5% trifluoroacetic acid. Aliquots of the samples were cocrystallized with α-cyano-4-hydroxycinnamic acid (1:1), applied on the target, and dried at room temperature. The mass spectra were acquired on the TofSpec 2E MALDI-TOF mass spectrometer (Waters, Inc.) in reflectron mode, with each spectrum representing the average of 50 laser shots. Close external calibration was used based on the following mixture: bradikinin fragment 1-8, m/z=904.41 (for [M+H]+); angiotensin II, m/z=1046.54; [Glul]-fibrinopeptide B, m/z=1570.68; ACTH (clip 18-39), m/z=2465.20.

As for “H18A: histone H4 peptide (residues 15-24) with His-18 mutated to alanine (Ac-AKRARKVLRD-NH2; UniProt P62805 16-25, looked up, variant H18A)”, in the series with hSET8, the “histone H4 binding / affinity of hSET8 for mutant histone H4 peptide” value (“histone H4 binding / affinity of hSET8” below) was “completely abolishes binding” and the AdoHcy binding entry is listed as “severely abrogate AdoHcy binding”. The “histone H4 binding / affinity of hSET8” value with hSET8 (listed as His-18 to alanine) is “completely abolishes both histone H4 binding and methylation”. Turning to “H18F: histone H4 peptide (residues 15-24) with His-18 mutated to phenylalanine (Ac-AKRFRKVLRD-NH2; UniProt P62805 16-25, looked up, variant H18F)”, in the series with hSET8, the “histone H4 binding / affinity of hSET8” value is recorded as “modestly affects the affinity” and the AdoHcy binding entry is “severely abrogate AdoHcy binding”. Besides, the “histone H4 binding / affinity of hSET8” value in the series with hSET8 (listed as His-18 to phenylalanine) is reported as “does not impact the affinity to nearly the same extent as the H347F substitution”.

B1: mouse G9A: histone H3 Lys-9/27 methyltransferase (protein, UniProt Q9Z148 1-1263, looked up)
Histone-lysine …: MRGLPRGRGLMRARGRGRAAPTGGRGRGRGGAHRGRGRPRSLLSLPRAQASWAPQLPAGLTGPPVPCLPSQGEAPAEMGALLLEKEPRGAAERVHSSLGDTPQSEETLPKANPDSLEPAGPSSPASVTVTVGDEGADTPVGAASLIGDEPESLEGDGGRIVLGHATKSFPSSPSKGGACPSRAKMSMTGAGKSPPSVQSLAMRLLSMPGAQGAATAGPEPSPATTAAQEGQPKVHRARKTMSKPSNGQPPIPEKRPPEVQHFRMSDDMHLGKVTSDVAKRRKLNSGSLSEDLGSAGGSGDIILEKGEPRPLEEWETVVGDDFSLYYDAYSVDERVDSDSKSEVEALAEQLSEEEEEEEEEEEEEEEEEEEEEEEEEDEESGNQSDRSGSSGRRKAKKKWRKDSPWVKPSRKRRKREPPRAKEPRGVNGVGSSGPSEYMEVPLGSLELPSEGTLSPNHAGVSNDTSSLETERGFEELPLCSCRMEAPKIDRISERAGHKCMATESVDGELLGCNAAILKRETMRPSSRVALMVLCEAHRARMVKHHCCPGCGYFCTAGTFLECHPDFRVAHRFHKACVSQLNGMVFCPHCGEDASEAQEVTIPRGDGGTPPIGTAAPALPPLAHDAPGRADTSQPSARMRGHGEPRRPPCDPLADTIDSSGPSLTLPNGGCLSAVGLPPGPGREALEKALVIQESERRKKLRFHPRQLYLSVKQGELQKVILMLLDNLDPNFQSDQQSKRTPLHAAAQKGSVEICHVLLQAGANINAVDKQQRTPLMEAVVNNHLEVARYMVQLGGCVYSKEEDGSTCLHHAAKIGNLEMVSLLLSTGQVDVNAQDSGGWTPIIWAAEHKHIDVIRMLLTRGADVTLTDNEENICLHWASFTGSAAIAEVLLNAQCDLHAVNYHGDTPLHIAARESYHDCVLLFLSRGANPELRNKEGDTAWDLTPERSDVWFALQLNRKLRLGVGNRAVRTEKIICRDVARGYENVPIPCVNGVDGEPCPEDYKYISENCETSTMNIDRNITHLQHCTCVDDCSSSNCLCGQLSIRCWYDKDGRLLQEFNKIEPPLIFECNQACSCWRSCKNRVVQSGIKVRLQLYRTAKMGWGVRALQTIPQGTFICEYVGELISDAEADVREDDSYLFDLDNKDGEVYCIDARYYGNISRFINHLCDPNIIPVRVFMLHQDLRFPRIAFFSSRDIRTGEELGFDYGDRFWDIKSKYFTCQCGSEKCKHSAEAIALEQSRLARLDPHPELLPDLSSLPPINT
With B1, the turnover number in the series with their cognate substrates is 0.024 s⁻¹.

B2: Drosophila SU(VAR)3-9: H3 Lys-9-specific histone methyltransferase (protein, UniProt P45975 1-635, looked up)
Histone-lysine …: MATAEAQIGVNRNLQKQDLSNLDVSKLTPLSPEVISRQATINIGTIGHVAHGKSTVVKAISGVQTVRFKNELERNITIKLERLSEKKIKNLLTSKQQRQQYEIKQRSMLRHLAELRRHSRFRRLCTKPASSSMPASTSSVDRRTTRRSTSQTSLSPSNSSGYGSVFGCEEHDVDKIPSLNGFAKLKRRRSSCVGAPTPNSKRSKNNMGVIAKRPPKGEYVVERIECVEMDQYQPVFFVKWLGYHDSENTWESLANVADCAEMEKFVERHQQLYETYIAKITTELEKQLEALPLMENITVAEVDAYEPLNLQIDLILLAQYRAAGSRSQREPQKIGERALKSMQIKRAQFVRRKQLADLALFEKRMNHVEKPSPPIRVENNIDLDTIDSNFMYIHDNIIGKDVPKPEAGIVGCKCTEDTEECTASTKCCARFAGELFAYERSTRRLRLRPGSAIYECNSRCSCDSSCSNRLVQHGRQVPLVLFKTANGSGWGVRAATALRKGEFVCEYIGEIITSDEANERGKAYDDNGRTYLFDLDYNTAQDSEYTIDAANYGNISHFINHSCDPNLAVFPCWIEHLNVALPHLVFFTLRPIKAGEELSFDYIRADNEDVPYENLSTAVRVECRCGRDNCRKVLF
For the molecule B2, the turnover number in the series with their cognate substrates is 0.11 s⁻¹.

B3: wild-type hSET8: construct of hSET8 encoding residues 191-352, catalytic SET domain (protein, UniProt Q9NQR1 191-352, looked up, fragment)
chain: AAIAKQALKKPIKGKQAPRKKAQGKTQQNRKLTDFYPVRRSSRKSKAELQSEERKRIDELIESGKEEGMKIDLIDGKGRGVIATKQFSRGDFVVEYHGDLIEITDAKKREALYAQDPSTGCYMYYFQYLSKTYCVDATRETNRLGRLINHSKCGNCQTKLHD
For the molecule B3, the “methylation state of Lys-20 after reaction with the H4 peptide” value with Lys-20 in histone H4 (24 h) is given as “complete conversion to monomethyl-Lys-20”. The product specificity entry in the series on Lys-20 in histone H4 (MALDI mass spectrometry) is listed as “bona fide histone H4 Lys-20 monomethylase”.

B4: human SET7/9: human histone H3 Lys-4-specific methyltransferase (protein, UniProt Q8WTS6 1-366, looked up)
Histone-lysine …: MDSDDEMVEEAVEGHLDDDGLPHGFCTVTYSSTDRFEGNFVHGEKNGRGKFFFFDGSTLEGYYVDDALQGQGVYTYEDGGVLQGTYVDGELNGPAQEYDTDGRLIFKGQYKDNIRHGVCWIYYPDGGSLVGEVNEDGEMTGEKIAYVYPDERTALYGKFIDGEMIEGKLATLMSTEEGRPHFELMPGNSVYHFDKSTSSCISTNALLPDPYESERVYVAESLISSAGEGLFSKVAVGPNTVMSFYNGVRITHQEVDSRDWALNGNTLSLDEETVIDVPEPYNHVSKYCASLGHKANHSFTPNCIYDMFVHPRFGPIKCIRTLRAVEADEELTVAYGYDHSPPGKSGPEAPEWYQVELKAFQATQQK
In the case of B4, the turnover number with their cognate substrates was 0.004 s⁻¹.
